The source of these data is CN101627111A.

The target in the assay is Fcγ受体(FcγR). Kind of assay: cell-based or functional assay.

Take “2C11 huG1, HEK (145-2C11 variable regions on human IgG1/kappa, expressed in HEK 293E cells) (from UniProt P01857 1-330) (antibody)”: the T cell activation in vivo (markers on splenocytes of dosed Balb/c mice, flow cytometry) is 4 倍.
